This series concerns the molecule itself. Kind of series: cross-linking.

B1: Bacillus subtilis LrpC (natural protein, B. subtilis, UniProt P96582 1-144, looked up)
chain: MKLDQIDLNIIEELKKDSRLSMRELGRKIKLSPPSVTERVRQLESFGIIKQYTLEVDQKKLGLPVSCIVEATVKNADYERFKSYIQTLPNIEFCYRIAGAACYMLKINAESLEAVEDFINKTSPYAQTVTHVIFSEIDTKNGRG
By stoichiometry N is commonly meant the number of molecules, sites or subunits per partner or assembly. Turning to B1, the “stoichiometry N” value is at least 2.

B2: B.subtilis RecU Holliday-junction resolvase (enzyme, B. subtilis, UniProt P39792 1-206, looked up)
chain: MIRYPNGKTFQPKHSVSSQNSQKRAPSYSNRGMTLEDDLNETNKYYLTNQIAVIHKKPTPVQIVNVHYPKRSAAVIKEAYFKQSSTTDYNGIYKGRYIDFEAKETKNKTSFPLQNFHDHQIEHMKQVKAQDGICFVIISAFDQVYFLEADKLFYFWDRKEKNGRKSIRKDELEETAYPISLGYAPRIDYISIIEQLYFSPSSGAKG
Take B2: the “stoichiometry N” value was determined as 2.

Source of the values: article PMC1326243 (Nucleic Acids Research, 2006).
